The data set can be described thus: total protein half-life in vivo (active degradation + dilution); higher = more stable protein.
[1] abbreviates: E. coli NCM3722 delta-clpP delta-lon delta-hslV, growth: N-lim chemostat, doubling time 6 h.
[2] abbreviates: E. coli NCM3722 delta-clpP, growth: N-lim chemostat, doubling time 6 h.
Setting [3] is: E. coli NCM3722 delta-hslV, growth: N-lim chemostat, doubling time 6 h.
Where [4] appears, read: E. coli NCM3722 delta-lon, growth: N-lim chemostat, doubling time 6 h.
The mark [5] stands for this setting: E. coli NCM3722 delta-smpB, growth: N-lim chemostat, doubling time 6 h.
Where [6] appears, read: wild type E. coli NCM3722, growth: C-lim chemostat, doubling time 3 h.
The mark [7] stands for this setting: wild type E. coli NCM3722, growth: C-lim chemostat, doubling time 6 h.
[8] abbreviates: wild type E. coli NCM3722, growth: C-lim chemostat, doubling time 12 h.
Where [9] appears, read: wild type E. coli NCM3722, growth: N-lim chemostat, doubling time 6 h.
Setting [10] is: wild type E. coli NCM3722, growth: N-lim chemostat, doubling time 12 h.
[11] abbreviates: wild type E. coli NCM3722, growth: P-lim chemostat, doubling time 6 h.
The mark [12] stands for this setting: wild type E. coli NCM3722, growth: P-lim chemostat, doubling time 12 h.

± gives the standard deviation of the averaged measurements.

“MSLISMHGAWLSFSDAPLLDNAELHIEDNERVCLVGRNGAGKSTLMKILNREQGLDDGRIIYEQDLIVARLQQDPPRNVEGSVYDFVAEGIEEQAEYLKRYHDISRLVMNDPSEKNLNELAKVQEQLDHHNLWQLENRINEVLAQLGLDPNVALSSLSGGWLRKAALGRALVSNPRVLLLDEPTNHLDIETIDWLEGFLKTFNGTIIFISHDRSFIRNMATRIVDLDRGKLVTYPGNYDQYLLEKEEALRVEELQNAEFDRKLAQEEVWIRQGIKARRTRNEGRVRALKAMRRERGERREVMGTAKMQVEEASRSGKIVFEMEDVCYQVNGKQLVKDFSAQVLRGDKIALIGPNGCGKTTLLKLMLGQLQADSGRIHVGTKLEVAYFDQHRAELDPDKTVMDNLAEGKQEVMVNGKPRHVLGYLQDFLFHPKRAMTPVRALSGGERNRLLLARLFLKPSNLLILDEPTNDLDVETLELLEELIDSYQGTVLLVSHDRQFVDNTVTECWIFEGGGKIGRYVGGYHDARGQQEQYVALKQPAVKKTEEAAAAKAETVKRSSSKLSYKLQRELEQLPQLLEDLEAKLEALQTQVADASFFSQPHEQTQKVLADMAAAEQELEQAFERWEYLEALKNGG”: the “total protein half-life in vivo” value under setting [1] came out at 4.79 ± 0.63 h; the “total protein half-life in vivo” value under setting [2] came to 5.1 ± 0.79 h; the “total protein half-life in vivo” value under setting [3] was 4.73 ± 0.16 h; the “total protein half-life in vivo” value under setting [4] stood at 4.8 ± 0.17 h; the “total protein half-life in vivo” value under setting [5] came out at 4.38 ± 0.62 h; the “total protein half-life in vivo” value under setting [6] worked out at 3.41 ± 0.18 h. For the same sequence, the “total protein half-life in vivo” value worked out at 5.82 ± 0.35 h under setting [7]; 10.4 ± 1.5 h under setting [8]; 4.37 ± 0.087 h under setting [9]; 7.15 ± 0.13 h under setting [10]; 5.42 ± 0.33 h under setting [11]; 9.51 ± 0.35 h under setting [12].

In the case of “MPIQVLPPQLANQIAAGEVVERPASVVKELVENSLDAGATRIDIDIERGGAKLIRIRDNGCGIKKDELALALARHATSKIASLDDLEAIISLGFRGEALASISSVSRLTLTSRTAEQQEAWQAYAEGRDMNVTVKPAAHPVGTTLEVLDLFYNTPARRKFLRTEKTEFNHIDEIIRRIALARFDVTINLSHNGKIVRQYRAVPEGGQKERRLGAICGTAFLEQALAIEWQHGDLTLRGWVADPNHTTPALAEIQYCYVNGRMMRDRLINHAIRQACEDKLGADQQPAFVLYLEIDPHQVDVNVHPAKHEVRFHQSRLVHDFIYQGVLSVLQQQLETPLPLDDEPQPAPRSIPENRVAAGRNHFAEPAAREPVAPRYTPAPASGSRPAAPWPNAQPGYQKQQGEVYRQLLQTPAPMQKLKAPEPQEPALAANSQSFGRVLTIVHSDCALLERDGNISLLSLPVAERWLRQAQLTPGEAPVCAQPLLIPLRLKVSAEEKSALEKAQSALAELGIDFQSDAQHVTIRAVPLPLRQQNLQILIPELIGYLAKQSVFEPGNIAQWIARNLMSEHAQWSMAQAITLLADVERLCPQLVKTPPGGLLQSVDLHPAIKALKDE”, the “total protein half-life in vivo” value reads like this: under setting [1], 5.64 ± 0.16 h; under setting [2], 5.376 ± 0.017 h; under setting [3], 4.58 ± 0.16 h; under setting [4], 5.29 ± 0.063 h; under setting [5], 4.59 ± 0.048 h; under setting [6], 3.002 ± 0.009 h. The “total protein half-life in vivo” value came to 5.614 ± 0.0069 h under setting [7]; 9.34 ± 0.55 h under setting [8]; 4.635 ± 0.043 h under setting [9]; 8.197 ± 0.054 h under setting [10]; 5.43 ± 0.11 h under setting [11]; 10.2 ± 0.69 h under setting [12].

Regarding “MSKATEQNDKLKRAIIISAVLHVILFAALIWSSFDENIEASAGGGGGSSIDAVMVDSGAVVEQYKRMQSQESSAKRSDEQRKMKEQQAAEELREKQAAEQERLKQLEKERLAAQEQKKQAEEAAKQAELKQKQAEEAAAKAAADAKAKAEADAKAAEEAAKKAAADAKKKAEAEAAKAAAEAQKKAEAAAAALKKKAEAAEAAAAEARKKAATEAAEKAKAEAEKKAAAEKAAADKKAAAEKAAADKKAAEKAAAEKAAADKKAAAEKAAADKKAAAAKAAAEKAAAAKAAAEADDIFGELSSGKNAPKTGGGAKGNNASPAGSGNTKNNGASGADINNYAGQIKSAIESKFYDASSYAGKTCTLRIKLAPDGMLLDIKPEGGDPALCQAALAAAKLAKIPKPPSQAVYEVFKNAPLDFKP”, the “total protein half-life in vivo” value reads like this: under setting [2], 6.28 ± 0.72 h; under setting [3], 6.23 ± 0.21 h; under setting [5], 5.79 ± 0.58 h; under setting [6], 3.23 ± 0.71 h; under setting [7], 6.022 ± 0.019 h; under setting [8], 11.6 ± 1.8 h. In addition, the “total protein half-life in vivo” value under setting [9] amounted to 5.85 ± 0.2 h, the “total protein half-life in vivo” value under setting [10] is 12.7 ± 1.3 h, the “total protein half-life in vivo” value under setting [11] was found to be 5.49 ± 0.21 h and the “total protein half-life in vivo” value under setting [12] was 12.3 ± 0.83 h.

In the case of “MTSENPLLALREKISALDEKLLALLAERRELAVEVGKAKLLSHRPVRDIDRERDLLERLITLGKAHHLDAHYITRLFQLIIEDSVLTQQALLQQHLNKINPHSARIAFLGPKGSYSHLAARQYAARHFEQFIESGCAKFADIFNQVETGQADYAVVPIENTSSGAINDVYDLLQHTSLSIVGEMTLTIDHCLLVSGTTDLSTINTVYSHPQPFQQCSKFLNRYPHWKIEYTESTSAAMEKVAQAKSPHVAALGSEAGGTLYGLQVLERIEANQRQNFTRFVVLARKAINVSDQVPAKTTLLMATGQQAGALVEALLVLRNHNLIMTRLESRPIHGNPWEEMFYLDIQANLESAEMQKALKELGEITRSMKVLGCYPSENVVPVDPT [P0A9J8]”, the “total protein half-life in vivo” value reads like this: under setting [1], 5.3 ± 1.8 h; under setting [2], 4.03 ± 0.25 h; under setting [3], 4.9 ± 1.2 h; under setting [4], 4.67 ± 0.14 h; under setting [5], 4.1437 ± 0.0033 h; under setting [6], 2.62 ± 0.6 h. Besides, the “total protein half-life in vivo” value under setting [7] came to 5.375 ± 0.04 h; the “total protein half-life in vivo” value under setting [8] came out at 11 ± 0.42 h; the “total protein half-life in vivo” value under setting [9] was found to be 4.129 ± 0.037 h; the “total protein half-life in vivo” value under setting [10] was 6.55 ± 0.09 h; the “total protein half-life in vivo” value under setting [11] was found to be 5.88 ± 0.58 h; the “total protein half-life in vivo” value under setting [12] is 11.77 ± 0.076 h.

The record behind these values is the supplement of paper PMC11246515.
